{"source": "patent US20140248269A1", "about": "(NATIONAL CEREBRAL AND CARDIOVASCULAR CENTER, published 2014)", "molecular_target": "T1, natriuretic peptide receptor GC-A (human, UniProt P16066 33-1061)", "T1 sequence (looked up)": "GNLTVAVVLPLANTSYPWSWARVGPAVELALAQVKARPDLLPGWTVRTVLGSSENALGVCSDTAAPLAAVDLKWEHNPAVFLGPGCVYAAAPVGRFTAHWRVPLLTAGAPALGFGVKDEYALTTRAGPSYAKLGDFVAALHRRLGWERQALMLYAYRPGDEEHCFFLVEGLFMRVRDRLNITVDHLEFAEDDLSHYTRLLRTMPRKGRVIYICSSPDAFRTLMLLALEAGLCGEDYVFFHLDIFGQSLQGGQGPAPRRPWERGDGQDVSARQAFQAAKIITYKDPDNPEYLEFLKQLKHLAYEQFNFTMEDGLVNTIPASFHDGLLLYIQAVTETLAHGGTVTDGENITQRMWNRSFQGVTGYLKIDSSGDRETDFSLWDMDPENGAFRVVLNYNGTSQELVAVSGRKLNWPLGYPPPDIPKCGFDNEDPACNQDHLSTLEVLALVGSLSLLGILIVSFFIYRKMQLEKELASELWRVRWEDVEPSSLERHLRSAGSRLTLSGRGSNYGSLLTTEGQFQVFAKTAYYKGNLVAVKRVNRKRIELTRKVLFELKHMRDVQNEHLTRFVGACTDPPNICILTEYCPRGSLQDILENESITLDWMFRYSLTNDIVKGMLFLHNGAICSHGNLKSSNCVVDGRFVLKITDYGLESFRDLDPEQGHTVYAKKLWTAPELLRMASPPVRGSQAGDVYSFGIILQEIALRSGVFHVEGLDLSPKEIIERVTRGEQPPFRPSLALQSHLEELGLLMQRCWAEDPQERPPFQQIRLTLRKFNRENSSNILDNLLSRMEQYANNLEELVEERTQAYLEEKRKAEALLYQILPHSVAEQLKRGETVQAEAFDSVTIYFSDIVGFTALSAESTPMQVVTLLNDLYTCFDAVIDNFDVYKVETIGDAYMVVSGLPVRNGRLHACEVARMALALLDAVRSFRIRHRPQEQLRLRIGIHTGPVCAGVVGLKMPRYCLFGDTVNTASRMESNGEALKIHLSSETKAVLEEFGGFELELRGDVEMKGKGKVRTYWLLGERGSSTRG", "experiment": "cell-based or functional assay", "data": [{"binder": "SLRRSSCFGLKLDRIGAQSGLGCNSFRY", "note": "[LKL-ANP (mutant in which the amino acids at positions 10 to 12 of hANP are replaced with LKL)]", "values": [{"measurement": "ratio of suppression of EMT induced by TGF-β1 in terms of E-cad/Ncad (A549 cells, 1 µM)", "result": 52.9, "unit": "%"}]}]}
